Experiment: Solubility of zein in PG binary solvent mixtures (turbidity change at 405 nm)
Format: physicochemical
Protocol: The solubility of zein in different binary mixtures of PG and other water miscible non-volatile organic solvents that are miscible with PG was studied. This example studies the incorporation of different surfactants or solvents to enhance the solubility of a molecule in PG, if necessary. For this purpose, turbidity change of PG zein solution was monitored at 405 nm after the addition of different amounts of water, glycerol, Labrasol®, Tween® 80 or Lutrol® L 44 to 5 mL of zein solution in PG (2.5% w/v), at room temperature. The end point zone, at which zein was precipitated from PG solution, was calculated monitoring the turbidity change at 405 nm, that is, the absorbance increase (in percentage) after each solvent/surfactant addition with respect to the initial absorbance value in a spectrophotometer (Labsystems iEMS Reader MF, Finland).

Substance: zein
- End point range of zein precipitation from PG solution (Tween® 80 added to zein 2.5% w/v in PG): 65-75 % (v/v)
- End point range of zein precipitation from PG solution (glycerol added to zein 2.5% w/v in PG): 45-55 % v/v

Source: patent publication US9974753B2, “Nanoparticles comprising a vegetable hydrophobic protein and a water miscible non-volatile organic solvent and uses thereof” (BIONANOPLUS, S.L., priority 2012, dated 2018)
